The record followed here is publication PMC3542827.

Test in all cases: EMSA
A general note: A gel shift assay detects complexes by their altered migration in electrophoresis.

In data set [1] the test system is ParB (wild type) (Pseudomonas aeruginosa (PAO1161?)). As to conditions: EMSA: 5.6 pmol dsDNA with 10, 20, 30, 50 pmol His6-ParB, 37 °C, 15 min; buffer as in Kusiak et al. 2011 (not given); 10% native PAGE in TBE.
In data set [2] the test system is ParB L282A (Pseudomonas aeruginosa (PAO1161?)).
Data set [3] relates to ParB L286A (Pseudomonas aeruginosa (PAO1161?)).
The test system of data set [4] is ParB V285A (Pseudomonas aeruginosa (PAO1161?)).

In the case of parS2/3 (oligos #17/#18), in data set [1], the binding signal (fold affinity (reference)) was determined as 1. For the same substance, the binding signal (fold affinity vs wild-type ParB) in data set [2] turned out to be 0.5; in data set [3] it was 2; in data set [4], 0.5.
